Results from patent publication US20160039947A1 (Eli Lilly, published 2016).

B1: Anti-Axl IgG1 (AxlG1) (antibody, V domains shown)
VH: EVQLVESGGGLVQPGGSLRLSCAASGFSLSGSWIHWVRQAPGKGLEWVGWINPYRGYAYYADSVKGRFTISADTSKNTAYLQMNSLRAEDTAVYYCAREYSGWGGSSVGYAMDYWGQGTLVTVSS
VL: DIQMTQSPSSLSASVGDRVTITCRASQDVSTAVAWYQQKPGKAPKLLIYSASFLYSGVPSRFSGSGSGTDFTLTISSLQPEDFATYYCQQSYTTPPTFGQGTKVEIKG
notes: also called anti-Axl antibody YW327.6S2 control IgG
B2: matuzumab IgG1 (mG1) (antibody, V domains shown)
VH: QVQLVQSGAEVKKPGASVKVSCKASGYTFTSHWMHWVRQAPGQGLEWIGEFNPSNGRTNYNEKFKSKATMTVDTSTNTAYMELSSLRSEDTAVYYCASRDYDYDGRYFDYWGQGTLVTVSS
VL: DIQMTQSPSSLSASVGDRVTITCSASSSVTYMYWYQQKPGKAPKLLIYDTSNLASGVPSRFSGSGSGTDYTFTISSLQPEDIATYYCQQWSSHIFTFGQGTKVEIKG
notes: also called matuzumab (anti-EGFR) control IgG

Tests used:
hHGFR(cMet)-Fc = target: T1, hHGFR(cMet)-Fc (human, UniProt P08581 25-932); assay: sandwich ELISA: hHGFR(cMet)-Fc coated, IgG, hAxl-Fc-biotin detection
T1 construct: Coated in the sandwich ELISA; second injection in SPR; not shown: Fc part of the bought fusion protein
T1 sequence (P08581 25-932): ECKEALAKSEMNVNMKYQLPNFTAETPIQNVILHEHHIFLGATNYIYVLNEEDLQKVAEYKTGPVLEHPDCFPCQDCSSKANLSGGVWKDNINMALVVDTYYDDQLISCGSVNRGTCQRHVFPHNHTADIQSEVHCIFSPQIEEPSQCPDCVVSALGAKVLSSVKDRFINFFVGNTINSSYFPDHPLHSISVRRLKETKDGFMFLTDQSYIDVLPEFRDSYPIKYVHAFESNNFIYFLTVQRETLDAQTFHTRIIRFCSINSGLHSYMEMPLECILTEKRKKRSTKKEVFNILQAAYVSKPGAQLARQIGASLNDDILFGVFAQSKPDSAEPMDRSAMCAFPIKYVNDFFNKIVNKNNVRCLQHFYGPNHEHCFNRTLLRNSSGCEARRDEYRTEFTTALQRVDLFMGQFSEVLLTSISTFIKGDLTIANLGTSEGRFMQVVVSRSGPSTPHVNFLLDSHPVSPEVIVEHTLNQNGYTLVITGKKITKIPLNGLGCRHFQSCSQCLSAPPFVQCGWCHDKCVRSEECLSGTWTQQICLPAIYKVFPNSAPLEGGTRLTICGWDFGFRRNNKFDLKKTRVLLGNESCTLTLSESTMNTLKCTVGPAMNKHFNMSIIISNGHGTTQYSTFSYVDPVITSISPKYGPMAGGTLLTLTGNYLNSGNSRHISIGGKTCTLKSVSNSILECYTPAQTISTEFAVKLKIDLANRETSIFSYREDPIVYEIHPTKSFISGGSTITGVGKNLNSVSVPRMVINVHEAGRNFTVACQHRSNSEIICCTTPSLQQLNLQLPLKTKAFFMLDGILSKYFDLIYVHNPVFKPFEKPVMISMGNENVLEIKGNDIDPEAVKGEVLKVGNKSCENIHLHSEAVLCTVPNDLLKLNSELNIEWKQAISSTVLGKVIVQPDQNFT
Protocol: (§1) Two sandwich ELISAs are developed, one for detecting anti-HER-2/anti-EGFR BsAb activity and one for detecting anti-cMET/anti-Axl BsAb activity. For both ELISAs, clear 96-well round bottom high binding Immulon microtiter plates (Greiner bio-one, cat#650061) are coated overnight at 2-8° C. with 50 μL/well 1 μg/mL hHER-2-Fc or 1 μg/mL hHGFR(cMet)-Fc (both from R&D systems) in a 50 mM Na₂CO₃ pH 8 buffer. The plates are washed 4 times with PB ST and blocked with 100 μL/well casein buffer (Pierce) for 1 hr at 37° C. The plates are then washed 4 times with PBST and the parental IgG controls or BsAb IgG test articles are added at 50 μL/well and 5 μg/mL and serially diluted 1:3 down the plate. The test articles are incubated on the plate for 1 hr at 37° C. The plates are then washed 4 times with PBST and 50 μL/well 0.2 μg/mL hEGFR-Fc-biotin or hAxl-Fc-biotin (both from R&D systems) is added for 1 hr at 37° C. The plates are then washed 4 times with PBST followed by the addition of a 50 μL/well streptavidin-HRP (Jackson Labs) diluted 1:2000 in PBST. The streptavidin-HRP is incubated in each well for 1 hr at 37° C. The plates are then washed 4 times with PBST and 100 μL/well 1-component TMB substrate is added (KPL laboratories). […] Absorbance (450 nm) of every well in the plates is read using a SpectraMax UV plate reader (Molecular Devices). […]

hHER-2-Fc = target: T2, hHER-2-Fc (human, UniProt P04626 23-652); assay: sandwich ELISA: hHER-2-Fc coated, IgG, hEGFR-Fc-biotin detection
T2 construct: Coated unlabelled in the sandwich ELISA; biotinylated and captured on an SA chip in the SPR assay; also called human HER-2-Fc; hHER-2-Fc-biotin; not shown: Fc part of the bought fusion protein
Protocol: as §1

Row | Binder | binding result (hHGFR(cMet)-Fc) | binding result (hHER-2-Fc)
1 | B1 | no binding (tested: 5 µg/mL, serially diluted 1:3) | 
2 | B2 |  | no binding (tested: 5 µg/mL, serially diluted 1:3)
